From paper PMC2291572, “HDP—A Novel Heme Detoxification Protein from the Malaria Parasite” (PLoS Pathogens, 2008)

B1: Heme Detoxification Protein (HDP), native, from P. falciparum-infected RBCs (natural protein, UniProt Q8IL04 1-205, looked up)
chain: MKNRFYYNLIIKRLYTRSGGLRKPQKVTNDPESINRKVYWCFEHKPVKRTIINLIYSHNELKIFSNLLNHPTVGSSLIHELSLDGPYTAFFPSNEAMQLINIESFNKLYNDENKLSEFVLNHVTKEYWLYRDLYGSSYQPWLMYNEKREAPEKLRNLLNNDLIVKIEGEFKHCNHSIYLNGSKIIRPNMKCHNGVVHIVDKPIIF
notes: Heme Detoxification Protein (HDP), Plasmodium falciparum, 205 amino acids; detected as intact HDP according to its predicted size; Called a dimer from bands on immunoblots and a silver-stained gel; also called native HDP; PfHDP; source: endogenous, extracts of P. falciparum trophozoite-infected RBCs and food vacuole preparation; also purified from the infected RBC extract by immunoprecipitation
B2: c-MycHDP (HDP with an amino-terminal c-Myc tag) (natural protein, P. falciparum, UniProt Q8IL04 1-205, looked up)
chain: B1 chain
notes: Heme Detoxification Protein (HDP), Plasmodium falciparum, 205 amino acids; the tag is described as attached to the end of the protein and found intact; also called pc-MycHDP; source: P. falciparum 3D7 parasites, transfected (episomal expression), secreted into infected RBC cytosol; not shown: c-Myc, N-terminal, kept
B3: HDPc-Myc (HDP with a carboxyl-terminal c-Myc tag) (natural protein, P. falciparum, UniProt Q8IL04 1-205, looked up)
chain: B1 chain
notes: Heme Detoxification Protein (HDP), Plasmodium falciparum, 205 amino acids; the tag is described as attached to the end of the protein and found intact; also called pHDPc-Myc; source: P. falciparum 3D7 parasites, transfected (episomal expression), secreted into infected RBC cytosol; not shown: c-Myc, C-terminal, kept

Columns and labels:
[1] = molecular target: T1, HDP (Heme Detoxification Protein; PF14_0446) (Plasmodium falciparum, UniProt Q8IL04); assay: isothermal titration calorimetry; format: binding
T1 construct: full length, 205 residues; E. coli BL21 inclusion bodies, N-lauryl sarkosine solubilised

[2] = molecular target: the molecule itself; assay: immunoblot (band of dimer size); Western blot with anti-HDP antibodies on protein extract of trophozoite-infected RBCs; gel conditions not shown
[3] = molecular target: the molecule itself; assay: immunoblot (band of dimer size); Western blot of transfected parasites with a monoclonal antibody against the c-myc tag; protein secreted into infected RBC cytosol

Molecule | stoichiometry N [3] | also measured
C=CC1=C(C)C2=Cc3c(C=C)c(C)c4[n]3[Fe]([Cl])[n]3c(c(C)c(CCC(=O)O)c3=CC3=NC(=C4)C(C)=C3CCC(=O)O)=CC1=N2 [heme] |  | Kd [1]: 80 nM
B1 |  | stoichiometry N [2]: 2
B2 | 2 | 
B3 | 2 | 
